Results as given in US20220235345A1 (University of California, published 2022).
Ends that are not written are not given here.

Assays:
[1] = target: 35S-labeled human Scc1 fragment (residues 142-300) (UniProt O60216)
[2] = test system: Mca-DDREIMREGS-Dnp peptide containing Scc1 site 1
[3] = target: catalytically-dead separase with intact autocleavage sites (UniProt Q14674)
[4] = test system: securin^RE fragment containing residues 93-150
[5] = target: separase biosensor H2B-mRuby2-Scc1(142-467)-mNeonGreen with 255Leu-Pro to Ala-Ala (UniProt O60216)
[6] = target: separase biosensor H2B-mRuby2-Scc1(142-467)-mNeonGreen with deletion of Scc1 aa 251 to 260 (UniProt O60216)
[7] = target: T1, separase biosensor H2B-mRuby2-Scc1(142-467)-mNeonGreen, wild-type (UniProt O60216)
T1 sequence (O60216 whole entry, looked up): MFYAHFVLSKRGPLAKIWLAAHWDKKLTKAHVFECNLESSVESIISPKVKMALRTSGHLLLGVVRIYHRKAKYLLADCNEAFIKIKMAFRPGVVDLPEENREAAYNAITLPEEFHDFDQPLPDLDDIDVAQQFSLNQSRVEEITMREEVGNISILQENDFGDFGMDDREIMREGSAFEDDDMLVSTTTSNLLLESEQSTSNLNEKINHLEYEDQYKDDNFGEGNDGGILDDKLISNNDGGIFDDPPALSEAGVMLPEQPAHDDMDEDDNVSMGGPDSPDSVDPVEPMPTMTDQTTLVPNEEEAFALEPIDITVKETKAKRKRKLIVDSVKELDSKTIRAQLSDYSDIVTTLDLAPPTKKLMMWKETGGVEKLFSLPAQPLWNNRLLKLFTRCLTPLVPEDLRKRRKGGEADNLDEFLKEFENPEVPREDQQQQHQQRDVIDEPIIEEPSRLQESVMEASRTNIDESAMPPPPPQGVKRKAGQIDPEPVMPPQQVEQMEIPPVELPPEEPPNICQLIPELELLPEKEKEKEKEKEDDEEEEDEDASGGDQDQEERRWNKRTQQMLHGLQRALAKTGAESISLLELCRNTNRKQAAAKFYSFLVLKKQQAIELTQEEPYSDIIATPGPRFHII

[8] = target: T2, active human separase, securin-free (ClpXP-activated separase obtained from the securin-separase fusion after … (human, UniProt Q14674 1-2120)); test: in vitro cleavage of 35S-labeled securin^RE fragments with LP mutations by separase; interaction inferred from cleavage
T2 construct: also called active separase; apo separase; not shown: N-terminal remnant left after TEV cleavage of the fusion (3x FLAG tag between TEV site and separase)
T2 sequence (Q14674 other isoform, or with tags, fused parts or gaps): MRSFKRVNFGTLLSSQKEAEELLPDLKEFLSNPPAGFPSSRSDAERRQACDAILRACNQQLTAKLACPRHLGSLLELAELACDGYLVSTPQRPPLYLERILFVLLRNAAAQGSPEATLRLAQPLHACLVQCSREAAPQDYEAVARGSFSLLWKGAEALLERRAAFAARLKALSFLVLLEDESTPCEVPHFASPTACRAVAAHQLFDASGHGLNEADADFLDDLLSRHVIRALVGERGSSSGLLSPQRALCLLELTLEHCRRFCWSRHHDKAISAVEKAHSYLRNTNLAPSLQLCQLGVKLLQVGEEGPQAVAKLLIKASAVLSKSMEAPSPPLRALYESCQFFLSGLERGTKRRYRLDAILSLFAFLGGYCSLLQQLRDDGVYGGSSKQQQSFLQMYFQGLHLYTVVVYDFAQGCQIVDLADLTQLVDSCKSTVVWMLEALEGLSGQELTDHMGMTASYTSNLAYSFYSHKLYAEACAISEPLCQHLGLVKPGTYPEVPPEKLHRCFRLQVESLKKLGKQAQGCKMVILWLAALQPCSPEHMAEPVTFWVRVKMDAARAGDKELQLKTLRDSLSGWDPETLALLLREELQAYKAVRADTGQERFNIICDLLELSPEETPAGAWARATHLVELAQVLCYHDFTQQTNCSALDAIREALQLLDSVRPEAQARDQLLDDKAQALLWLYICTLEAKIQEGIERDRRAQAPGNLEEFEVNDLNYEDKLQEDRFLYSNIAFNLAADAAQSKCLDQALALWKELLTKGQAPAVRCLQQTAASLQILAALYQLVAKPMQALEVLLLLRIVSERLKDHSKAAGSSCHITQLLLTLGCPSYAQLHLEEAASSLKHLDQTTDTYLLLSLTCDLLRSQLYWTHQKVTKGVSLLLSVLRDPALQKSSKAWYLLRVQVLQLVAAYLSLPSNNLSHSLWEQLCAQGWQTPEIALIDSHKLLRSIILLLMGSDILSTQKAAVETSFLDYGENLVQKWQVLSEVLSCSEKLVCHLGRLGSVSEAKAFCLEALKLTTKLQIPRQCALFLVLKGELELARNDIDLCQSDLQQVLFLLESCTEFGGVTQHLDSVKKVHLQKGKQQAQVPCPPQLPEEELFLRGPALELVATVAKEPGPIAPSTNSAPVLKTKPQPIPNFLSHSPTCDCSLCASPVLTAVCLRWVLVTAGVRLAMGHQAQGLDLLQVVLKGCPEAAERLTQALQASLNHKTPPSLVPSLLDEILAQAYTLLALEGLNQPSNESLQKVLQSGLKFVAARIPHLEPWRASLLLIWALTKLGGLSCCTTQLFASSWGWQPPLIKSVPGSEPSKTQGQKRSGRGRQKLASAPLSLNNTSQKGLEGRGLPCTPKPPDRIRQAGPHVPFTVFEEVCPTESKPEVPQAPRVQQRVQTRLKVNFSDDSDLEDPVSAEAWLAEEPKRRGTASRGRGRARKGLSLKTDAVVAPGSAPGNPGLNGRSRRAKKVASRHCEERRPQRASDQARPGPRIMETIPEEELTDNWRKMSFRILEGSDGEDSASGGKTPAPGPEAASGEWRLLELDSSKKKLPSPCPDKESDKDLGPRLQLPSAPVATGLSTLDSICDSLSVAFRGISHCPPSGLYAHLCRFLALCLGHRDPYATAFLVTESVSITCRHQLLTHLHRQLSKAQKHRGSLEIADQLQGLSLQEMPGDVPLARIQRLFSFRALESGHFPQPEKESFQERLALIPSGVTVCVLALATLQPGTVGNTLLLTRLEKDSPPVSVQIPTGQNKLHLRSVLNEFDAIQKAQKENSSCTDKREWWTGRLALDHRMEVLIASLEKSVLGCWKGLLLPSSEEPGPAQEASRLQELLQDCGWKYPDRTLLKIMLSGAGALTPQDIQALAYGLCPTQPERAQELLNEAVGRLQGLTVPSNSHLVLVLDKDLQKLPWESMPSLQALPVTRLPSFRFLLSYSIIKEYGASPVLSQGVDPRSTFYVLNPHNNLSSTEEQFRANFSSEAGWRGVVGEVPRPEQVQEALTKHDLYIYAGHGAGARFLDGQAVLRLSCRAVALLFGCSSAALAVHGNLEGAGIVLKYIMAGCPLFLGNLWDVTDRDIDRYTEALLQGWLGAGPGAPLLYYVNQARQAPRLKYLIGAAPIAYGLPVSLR
From the text: An approach for investigating the importance of ¹³⁰LPE for securin binding to separase was developed. It is known that fungal securin can be converted to a separase substrate by making mutations that convert the pseudosubstrate site into a cleavage site⁴. The equivalent mutations were made in human securin (¹¹⁸FP to RE) and this securin^RE mutant was used to test the importance of ¹³⁰LPE for securin engagement with separase. An LP sequence a few residues further downstream (¹³⁹LP) was also tested. […] A securin^RE fragment containing residues 93-150 was then tested. […] Mutation of ¹³⁹LP had no effect, except when combined with mutation of ¹³⁰LP.

catalytically-dead separase with intact autocleavage sites, sequence (Q14674 whole entry S1126A/C2029S, the tested form may be a part): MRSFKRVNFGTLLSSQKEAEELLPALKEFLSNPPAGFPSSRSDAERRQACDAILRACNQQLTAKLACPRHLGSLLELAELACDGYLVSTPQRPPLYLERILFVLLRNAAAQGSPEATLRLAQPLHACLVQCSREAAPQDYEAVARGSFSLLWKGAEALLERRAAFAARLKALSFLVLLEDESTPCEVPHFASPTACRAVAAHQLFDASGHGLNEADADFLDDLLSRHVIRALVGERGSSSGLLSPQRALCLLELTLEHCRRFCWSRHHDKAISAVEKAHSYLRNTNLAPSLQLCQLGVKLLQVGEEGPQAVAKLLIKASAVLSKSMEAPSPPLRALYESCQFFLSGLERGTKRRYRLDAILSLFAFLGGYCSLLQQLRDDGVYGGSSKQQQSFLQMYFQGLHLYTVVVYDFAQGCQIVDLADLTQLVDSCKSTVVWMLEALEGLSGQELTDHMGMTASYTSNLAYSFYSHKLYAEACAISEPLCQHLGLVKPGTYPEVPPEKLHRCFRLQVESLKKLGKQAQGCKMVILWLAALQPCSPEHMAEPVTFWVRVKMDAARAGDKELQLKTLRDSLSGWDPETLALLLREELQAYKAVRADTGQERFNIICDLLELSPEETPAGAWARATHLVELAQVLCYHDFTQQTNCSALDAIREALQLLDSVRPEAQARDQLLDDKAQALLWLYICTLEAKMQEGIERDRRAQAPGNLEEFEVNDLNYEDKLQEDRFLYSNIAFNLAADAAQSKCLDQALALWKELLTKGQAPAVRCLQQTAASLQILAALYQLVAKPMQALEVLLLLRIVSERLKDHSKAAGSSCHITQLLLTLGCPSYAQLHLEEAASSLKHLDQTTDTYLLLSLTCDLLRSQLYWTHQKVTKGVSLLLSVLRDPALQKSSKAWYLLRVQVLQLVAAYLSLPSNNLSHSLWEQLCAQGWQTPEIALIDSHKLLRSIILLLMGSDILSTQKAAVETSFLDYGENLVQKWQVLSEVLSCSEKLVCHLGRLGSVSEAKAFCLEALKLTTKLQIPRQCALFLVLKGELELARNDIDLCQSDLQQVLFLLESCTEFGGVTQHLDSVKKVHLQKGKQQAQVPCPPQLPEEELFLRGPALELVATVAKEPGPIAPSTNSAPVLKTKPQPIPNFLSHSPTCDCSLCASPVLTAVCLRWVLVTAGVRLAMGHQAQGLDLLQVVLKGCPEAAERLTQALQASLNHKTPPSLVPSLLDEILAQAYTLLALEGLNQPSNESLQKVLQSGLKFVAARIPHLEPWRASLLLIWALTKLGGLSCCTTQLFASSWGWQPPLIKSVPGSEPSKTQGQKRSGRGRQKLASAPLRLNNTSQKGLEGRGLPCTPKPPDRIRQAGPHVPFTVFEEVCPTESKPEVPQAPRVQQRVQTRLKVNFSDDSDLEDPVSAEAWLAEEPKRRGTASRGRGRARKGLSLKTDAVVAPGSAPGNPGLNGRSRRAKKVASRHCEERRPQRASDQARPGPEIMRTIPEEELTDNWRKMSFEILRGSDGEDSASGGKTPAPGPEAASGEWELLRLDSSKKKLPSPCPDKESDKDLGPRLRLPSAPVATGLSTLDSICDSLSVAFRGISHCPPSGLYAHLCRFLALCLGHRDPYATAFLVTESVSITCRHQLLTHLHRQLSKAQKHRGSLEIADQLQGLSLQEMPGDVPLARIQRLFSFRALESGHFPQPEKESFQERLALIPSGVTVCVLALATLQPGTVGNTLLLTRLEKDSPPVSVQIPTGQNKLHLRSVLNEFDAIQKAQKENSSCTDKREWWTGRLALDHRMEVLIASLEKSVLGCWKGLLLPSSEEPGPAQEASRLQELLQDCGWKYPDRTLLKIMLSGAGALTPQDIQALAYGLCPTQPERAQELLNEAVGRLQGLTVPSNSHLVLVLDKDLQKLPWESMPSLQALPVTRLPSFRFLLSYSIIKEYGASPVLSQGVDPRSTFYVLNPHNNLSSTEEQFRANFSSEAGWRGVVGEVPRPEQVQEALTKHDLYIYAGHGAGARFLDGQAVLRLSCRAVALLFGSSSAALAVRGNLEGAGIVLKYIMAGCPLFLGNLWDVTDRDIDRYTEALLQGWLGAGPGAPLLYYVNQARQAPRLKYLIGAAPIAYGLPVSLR

For “active human separase, securin-free (ClpXP-activated separase obtained from the securin-separase fusion after TEV protease cleavage and ClpXP removal of securin)”, the “cleavage of an Scc1 fragment in vitro” value [1] was “incubation with purified ClpXP removed securin and activated separase, as evaluated by cleavage of an Scc1 fragment in vitro”, the KM [2] was “KM of 70±30 µM” and the cleavage in trans [3] was “Separase also cleaved a catalytically-dead separase with intact autocleavage sites”. The “cleavage of securin^RE fragment” value [4] was “This fragment was 50% cleaved by separase”.

For securinΔ127-separase, the “cleavage of the Scc1 fragment in the gel-based assay” value (“cleavage of the Scc1 fragment” for short) [1] was “exhibited no cleavage activity in this assay” and the “peptide cleavage activity (Michaelis-Menten)” value (“peptide cleavage activity” below) [2] was “no significant differences between the peptide cleavage activities of the three securinΔ-separase proteins and separase with no securin bound”.

With securinΔ138-separase the “cleavage of the Scc1 fragment” value [1] was “exhibited efficient cleavage of the Scc1 substrate” and the “peptide cleavage activity” value [2] was “no significant differences between the peptide cleavage activities of the three securinΔ-separase proteins and separase with no securin bound”.

In the case of securinΔ160-separase, the “cleavage of the Scc1 fragment” value [1] is reported as “exhibited efficient cleavage of the Scc1 substrate” and the “peptide cleavage activity” value [2] is reported as “no significant differences between the peptide cleavage activities of the three securinΔ-separase proteins and separase with no securin bound”.

“separase in human U2OS cells (endogenous)” was tested, and the biosensor cleavage efficiency [5] was “reduced cleavage efficiency by 50%”, the biosensor cleavage efficiency [6] was “yielded identical results as the double alanine mutation” and the “biosensor cleavage during anaphase” value [7] was “efficient biosensor cleavage was observed during anaphase”.

B1: securin^RE fragment containing residues 93-150 (other)
chain: MTEKTVKAKSSVPASDDAYPEIEKFREFNPLDFESFDLPEEHQIAHLPLSGVPLMILD
modifications: also: 35S-methionine label
notes: Pseudosubstrate motif converted into a separase cleavage site; Translated in vitro with ZZ tag, released by TEV protease; also called 35S-labeled securin fragment (aa 93-150)
B1: binds [8].
